From paper PMC3526290

Tests used:
[1] = target: Cac2 B domain (Saccharomyces cerevisiae) (UniProt Q04199); details: cited from earlier work
[2] = target: Asf1 labeled with Alexa Fluor 532 (*Asf1), full-length (budding yeast) (UniProt P32447); test: native gel or EMSA; labelled protein (*Asf1, 0.5 µM in Figure 1b, or H3/H4*) with Cac2 or CAF-1 titrated or at 20 µM; 10 mM Tris, 1 mM DTT, pH 8.0, 30 min on ice; 0.2x TBE 59:1 native gel on ice; fraction bound from band densities
[3] = target: Asf1 labeled with Alexa Fluor 532 (*Asf1), full-length (budding yeast) (UniProt P32447); test: fluorescence polarisation; fluorescence anisotropy; 10 nM *Asf1 (alone or pre-bound to 20 nM H3/H4) or 100 nM *Asf1^1-169, Cac2 or CAF-1 titrated; 20 mM HEPES, 150 mM NaCl, pH 7.4, 20°C

UniProt Q04199, sequence (Q04199 449-468): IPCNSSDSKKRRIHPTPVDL

Kd [2] [nM] | Kd [3] [nM] | Substance | Kd [1] [nM]
 |  | Asf1 (from UniProt P32447) | 1500
280 | 380 | Chromatin Assembly Factor 1 (CAF-1) complex: Cac1, Cac2, Cac3 (from UniProt Q12495 1-606; Q04199 1-468; P13712 1-422) | 
